Experimental data from patent US11312769B2, “Anti-TMEFF1 antibodies and antibody drug conjugates” (Bluefin BioMedicine, Inc., priority 2017, dated 2022).

T1: recombinant TMEFF1 (Homo sapiens, UniProt Q8IYR6)
T1 construct: generated to secrete the ECD from CHO cells to assist with biophysical evaluations; His tag (C); made in house; host or cells: CHO (ExpiCHO)
T1 sequence (Q8IYR6 40-330 limits assumed): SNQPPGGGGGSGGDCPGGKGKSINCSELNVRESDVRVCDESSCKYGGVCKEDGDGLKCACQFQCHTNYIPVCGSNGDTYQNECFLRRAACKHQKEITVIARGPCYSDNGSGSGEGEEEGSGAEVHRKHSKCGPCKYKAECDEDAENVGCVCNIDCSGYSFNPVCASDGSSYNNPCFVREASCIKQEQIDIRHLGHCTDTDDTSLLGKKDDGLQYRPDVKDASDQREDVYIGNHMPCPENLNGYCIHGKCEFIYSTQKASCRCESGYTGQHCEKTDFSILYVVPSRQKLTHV


What was measured:
[1] = test system: 293-hTMEFF1 cells; assay: Flow based antibody internalization assay; type: cell-based, human; details: 293-hTMEFF1 fixed with PFA, antibody 1 ug/ml, 30-120 min
Description: For Flow based internalization assay, 293-hTMEFF1 cells were collected and either fixed with 4% paraformaldehyde (PFA) for 20 minutes at 37° C. or kept live on ice. Cells were then incubated on ice for 40 minutes with anti-TMEFF1 antibody at 1 ug/ml, washed 2× with ice cold PBS, resuspended in complete warm media and incubated at 37° C. for 30, 60 or 120 minutes. Live cells were then fixed at those time points, washed 2× with PBS and labeled with fluorescent conjugated secondary antibody for 30 minutes on ice.
Antibody mediated TMEFF1 internalization was evaluated by Flow cytometry with five human anti-TMEFF1 antibodies in 293-hTMEFF1 cells. Fixed cells were treated with the antibody as a control of antibody loss due to detachment rather than internalization which would result in reduce signal. Thus a constant signal over time in fixed cells and a loss of signal in live cells would indicate antibody internalization. […] In live cells, it was observed that most antibodies show about a 50% internalization by 30 min of treatment (FIG. 1B).

[2] = target: T1, recombinant TMEFF1; assay: Binding competition binning (Octet); details: seven antibodies, 3 bins
Description: Binding competition among different antibodies was determined using a real-time, interferometry assay on an Octet Red™ instrument with Protein A-conjugated biosensors. To assess whether two antibodies competed for binding to a recombinant TMEFF1 protein, the assay was performed as follows. Protein A biosensors were first submerged into wells containing 10 ug/mL of individual monoclonal antibodies for 5 minutes. Following the capture step, the biosensors were dipped briefly (15 seconds) into buffer and then any unoccupied sites on the biosensor were saturated by submerging them for 5 minutes into wells containing 100 ug/mL of an irrelevant monoclonal antibody. The Octet biosensors were then dipped briefly (15 seconds) in buffer before immersion for 1 minute into wells containing recombinant TMEFF1. The biosensors were dipped briefly (15 seconds) in buffer before immersion for 1 minute into wells containing a second recombinant antibody.
For the control case where the second antibody was the same as the first, there was no increase in signal, because there was no additional binding to the recombinant target.
For the control case where buffer was used instead of the first antibody, no recombinant target bound the non-quenching antibody on the biosensor and no second antibody bound the biosensor.
Competition binning using Octet™ was done with seven antibodies and 3 separate bins were identified.

[3] = test system: hTMEFF1-ECD recombinant deletion mutants; assay: Binding domain determination with hTMEFF1-ECD deletion mutants (Octet); parameters: species or system human; key: FS1—follistatin domain 1; FS2—follistatin domain 2; details: full length TMEFF1 ECD vs ΔFS1, ΔFS2, ΔFS1&FS2
Excerpt: TMEFF1 recombinant proteins expressing 3 different deletion mutants, AFS1 (AFollistatin Domain 1), AFS2 (AFollistatin Domain 2) or AFS1&FS2 were used to identify binding domains among different antibodes using an Octet Red instrument with Anti-Penta-His (HIS 1K) biosensors. Expression of the 3 deletion mutants was confirmed by WB analysis. 100 ngs of purified TMEFF1 ECD was run along with unpurified supernatant of transfected CHO cells with the different deletion mutants. HIS 1K biosensors were loaded by submerging the biosensors into wells containing 10 ug/ml of full length TMEFF1 or one of 3 different deletion mutants (AFS1, AFS2 or AFS1&FS2) for 60 seconds. Following the loading step, the biosensors were then dipped for 30 seconds in PBS before immersion for 30 seconds in 200 ul of unpurified recombinant antibodies for 30 seconds. The biosensors were then dipped briefly (30 seconds) in PBS to observe any dissociation. Samples were determined to show binding or no binding by comparing to a control well that contained no recombinant antibody. Differential binding to the deletion mutants allowed for determination of binding sites on TMEFF1 recombinant protein. For cases where the antibody bound all 3 recombinant proteins, the binding is outside of the deleted domains. For the case where binding is observed only on full length TMEFF1 and AFS2, the antibody is binding in the ΔFS1 domain.
26 of the identified antibodies were checked for epitope domain binding by Octet™ using the hTMEFF1-ECD recombinant deletion mutants (see Table 7, below).

Molecule | Binding region (epitope domain binding) [3] | Cell surface binding in fixed cells over the duration of the assay [1] | Competition binning (epitope bin) [2]
M1H1: human anti-TMEFF1 IgG1 antibody; VH SEQ ID NO: 9, VL SEQ ID NO: 78 (antibody, V domains shown) VH: QVQLQESGPGLVKPSETLSLTCAVSGYSISSGYFWGWIRQPPGKKLEWIGSIYHSGSTYYNPSLKSRVTMSVDTSKNQFSLKLSSVTAADTAVYYCAREGDCSGGICYWYFDLWGRGTLVTVSS VL: DIQMTQSPSSLSASVGDRVTITCRASQGISNYLAWYQQKPGKVPKLLIYAASTLQSGVPSRFSGSGSGTDFTLTISSLQPEDFAVYYCQQYNKWPLTFGGGTKLEIK | other | – | –
10C10: human anti-TMEFF1 IgG1 antibody; VH SEQ ID NO: 96, VL SEQ ID NO: 93 (antibody, V domains shown) VH: QVQLVESGGGVVQPGRSLRLSCATSGFTFSIYGMHWVRQAPGKGLEWVAIIWYDGNKKYYADSVKGRFTISRDNSKNTLYLQMNSLRAEDTAVYYCARDPYTSSLDYWGQGTLVTVSS VL: DIQLTQSPSFLSASVGDRVTITCRASQGISSYLAWYQQKPGKAPKLLIYAASTLQSGVPSRFSGSGSGTEFTLTISSLQPEDFATYYCQQLNSYPLTFGGGTKLEIK | FS1 | – | –
18C2: human anti-TMEFF1 IgG1 antibody; VH SEQ ID NO: 89, VL SEQ ID NO: 93 (antibody, V domains shown) VH: QVQLVESGGGVVQPGRSLRLSCAASGFTFSIYGMHWVRQAPGMGLEWVAIIRYDGSNKYYADSVKGRFTISRDNSKNTLYLRMNSLRAEDTAVYYCARDPFTSSLDYWGQGTLVTVSS VL: DIQLTQSPSFLSASVGDRVTITCRASQGISSYLAWYQQKPGKAPKLLIYAASTLQSGVPSRFSGSGSGTEFTLTISSLQPEDFATYYCQQLNSYPLTFGGGTKLEIK | FS1 | – | –
19D9: human anti-TMEFF1 IgG1 antibody; VH SEQ ID NO: 99, VL SEQ ID NO: 101 (antibody, V domains shown) VH: QVQLVESGGGVVQPGRSLRLSCAASGFTFSIYGMHWVRQAPGKGLEWVANIWYDGSKKYYADSVKGRFTISRDNSKNTLYLQMNSLRAEDTSVYYCARDPYTSSLDYWGQGTLVTVSS VL: DIQLTQSPSFLSASVGDRVTITCRASQGISSYLAWYQQKPGKAPKLLIYTASTLQSGVPSRFSGSGSGTEFTLTISSLQPEDFATYYCQQLNSYPLTFGGGTKLEIK | FS1 | – | –
11F9: human anti-TMEFF1 IgG1 antibody; VH SEQ ID NO: 71, VL SEQ ID NO: 75 (antibody, V domains shown) VH: EVQLVESGGGLVKPGGSLRLSCAASGFTFSYAWMSWVRQAPGKGLEWVGRIKSKTDGGTTDYAAPVKGRFTISRDDSKNTLYLQLNSLKIEDTAVYYCTTGRIAAAGFDYWAQGTLVTVSS VL: DAVVTQESALTTSPGETVTLTCRSSTGTVTTSNYANWVQEKPDHLFTGLIAGTNNRAPGVPARFSGSLIGDKAVLTITGAQTEDEAIYFCALWYSNHWVFGGGTKLTVLG | other | – | –
M1F1: human anti-TMEFF1 IgG1 antibody; VH SEQ ID NO: 9, VL SEQ ID NO: 13 (antibody, V domains shown) VH: QVQLQESGPGLVKPSETLSLTCAVSGYSISSGYFWGWIRQPPGKKLEWIGSIYHSGSTYYNPSLKSRVTMSVDTSKNQFSLKLSSVTAADTAVYYCAREGDCSGGICYWYFDLWGRGTLVTVSS VL: EIVMTQSPATLSVSPGERATLSCRASQSVSSNLAWYQQKPGQAPRLLIYGASTRATGIPARFSGSGSGTEVTLTISSLQSEDFAVYYCQQYNKWPLTFGGGTKVEIK | Other | – | bind a region different from FS1 or FS2 and compete with each other

Continued, in another order:

Binding region (epitope domain binding) [3] | Molecule | Cell surface binding in fixed cells over the duration of the assay [1] | Competition binning (epitope bin) [2]
FS1 | 36H6: human anti-TMEFF1 IgG1 antibody; VH SEQ ID NO: 43, VL SEQ ID NO: 47 (antibody, V domains shown) VH: QVQLVESGGGVVQPGRSLRLSCAASGFTFSDYGMHWVRQAPGKGLEWVAVIWYEGGNKYYTDSVKGRFTISRDNSKNTLYLQMNSLRAEDTAVYYCARILLWFGESYGMDVWGQGTTVTVSS VL: DIQMTQSPSSLSASVGDRVTITCRASQGISNYLAWYQQKPGKVPKLLIYAASTLQSGVPSRFSGSGSGTDFTLTISSLQPEDVATYYCQKYNNAPWTFGQGTKVEIK | consistent cell surface binding in fix cells | compete with each other and bind FS1
FS1 | 24F10: human anti-TMEFF1 IgG1 antibody; VH SEQ ID NO: 33, VL SEQ ID NO: 36 (antibody, V domains shown) VH: QVQLVESGGGVVQPGRSLRLSCAASGFTFSSYGMHWVRQAPGKGLEWVAVIWYDGSDKYYTDSVKGRFTISRDNSKNTLYLQMNSLRAEDTAVYYCARESMVRGIVITFFDYWGQGTLVTVSS VL: EIVMTQSPATLSVSPGERATLSCRASQSVSSNLAWYQQKPGQAPRLLIYGASTRATGIPARFSGSGSGTEFTLTISSLQSEDFAVYSCQHYNNWPPTFGGGTKVEIK | consistent cell surface binding in fix cells | compete with each other and bind FS1
other | 31B7: human anti-TMEFF1 IgG1 antibody; VH SEQ ID NO: 17, VL SEQ ID NO: 21 (antibody, V domains shown) VH: QVQLVESGGGVVQPGRSLRLSCAASGFTFSSYGMHWVRQAPGKGLEWVAVIWYNGINKYYADSVKGRFTISRDASKNTLYLQMNSLRAEDTAVYYCAREGLLWFGGMDVWGQGTTVTVSS VL: EIVLTQSPLSLPVTPGEPASISCRSSQSLLHSNGYNYLHWYLQKPGQSPQLLIYLGSNRASGVPDRFSGSRSGTDFTLKIIRVEAEDVGVYYCMQALQTPYTFGQGTKLEIK | consistent cell surface binding in fix cells | bind a region different from FS1 or FS2 and compete with each other
